How the values were obtained:
Assay in all cases: cell-based or functional assay
[1] = molecular target: HIV-1 Env of pseudovirus 6244_13_B5_4576 (HIV-1)
[2] = molecular target: HIV-1 Env of pseudovirus CNE8 (HIV-1)
[3] = molecular target: HIV-1 Env of pseudovirus QH0692.42 (HIV-1)
[4] = molecular target: HIV-1 Env of pseudovirus Ce2010_F5 (HIV-1)
[5] = molecular target: HIV-1 Env of pseudovirus BJOX028000.10.3 (HIV-1)
[6] = molecular target: HIV-1 Env of pseudovirus HIV-16845-2.22 (HIV-1)
[7] = molecular target: HIV-1 Env of pseudovirus 1054_07_TC4_1499 (HIV-1)
[8] = molecular target: HIV-1 Env of pseudovirus REJO4541.67 (HIV-1)
[9] = molecular target: HIV-1 Env of pseudovirus HIV-001428-2.42 (HIV-1)
[10] = molecular target: HIV-1 Env of pseudovirus ZM247v1(Rev-) (HIV-1)
[11] = molecular target: HIV-1 Env of pseudovirus BJOX025000.01.1 (HIV-1)
[12] = molecular target: HIV-1 Env of pseudovirus PVO.4 (HIV-1)
[13] = molecular target: HIV-1 Env of pseudovirus 3365.v2.c2 (HIV-1)
[14] = molecular target: HIV-1 Env of pseudovirus Q23.17 (HIV-1)
[15] = molecular target: HIV-1 Env of pseudovirus SC05_8C11_2344 (HIV-1)
[16] = molecular target: HIV-1 Env of pseudovirus R3265.c06 (HIV-1)
[17] = molecular target: HIV-1 Env of pseudovirus Ce1176_A3 (HIV-1)
[18] = molecular target: HIV-1 Env of pseudovirus HIV-0013095-2.11 (HIV-1)
[19] = molecular target: HIV-1 Env of pseudovirus CAAN5342.A2 (HIV-1)
[20] = molecular target: HIV-1 Env of pseudovirus TRO.11 (HIV-1)
[21] = molecular target: HIV-1 Env of pseudovirus WEAU_d15_410_787 (HIV-1)
[22] = molecular target: HIV-1 Env of pseudovirus BJOX010000.06.2 (HIV-1)
[23] = molecular target: HIV-1 Env of pseudovirus R1166.c01 (HIV-1)
[24] = molecular target: HIV-1 Env of pseudovirus Ce1086_B2 (HIV-1)
[25] = molecular target: HIV-1 Env of pseudovirus CNE53 (HIV-1)
[26] = molecular target: HIV-1 Env of pseudovirus C3347.c11 (HIV-1)
[27] = molecular target: HIV-1 Env of pseudovirus Ce1172_H1 (HIV-1)
[28] = molecular target: HIV-1 Env of pseudovirus Q769.d22 (HIV-1)
[29] = molecular target: HIV-1 Env of pseudovirus 0260.v5.c36 (HIV-1)
[30] = molecular target: HIV-1 Env of pseudovirus ZM233M.PB6 (HIV-1)
[31] = molecular target: HIV-1 Env of pseudovirus T278-50 (HIV-1)
[32] = molecular target: HIV-1 Env of pseudovirus C1080.c03 (HIV-1)
[33] = molecular target: HIV-1 Env of pseudovirus 6535.3 (HIV-1)

N49P7.1 (antibody)
neutralization IC50 [1]: 0.184 µg/mL
neutralization IC80 [1]: 0.493 µg/mL
neutralization MPI [1]: 100
neutralization IC50 [2]: 0.048 µg/mL
neutralization IC80 [2]: 0.167 µg/mL
neutralization MPI [2]: 100
neutralization IC50 [3]: 0.764 µg/mL
neutralization IC80 [3]: 2.71 µg/mL
neutralization MPI [3]: 100
neutralization IC50 [4]: 0.055 µg/mL
neutralization IC80 [4]: 0.208 µg/mL
neutralization MPI [4]: 100
neutralization IC50 [5]: 0.031 µg/mL
neutralization IC80 [5]: 0.29 µg/mL
neutralization MPI [5]: 100
neutralization IC50 [6]: 1.07 µg/mL
neutralization IC80 [6]: 5.4 µg/mL
neutralization MPI [6]: 100
neutralization IC50 [7]: 0.627 µg/mL
neutralization IC80 [7]: 2.98 µg/mL
neutralization MPI [7]: 100
neutralization IC50 [8]: 0.022 µg/mL
neutralization IC80 [8]: 0.088 µg/mL
neutralization MPI [8]: 100
neutralization IC50 [9]: 0.009 µg/mL
neutralization IC80 [9]: 0.029 µg/mL
neutralization MPI [9]: 100
neutralization IC50 [10]: 0.038 µg/mL
neutralization IC80 [10]: 0.176 µg/mL
neutralization MPI [10]: 100
neutralization IC50 [11]: 0.057 µg/mL
neutralization IC80 [11]: 0.378 µg/mL
neutralization MPI [11]: 100
neutralization IC50 [12]: 0.124 µg/mL
neutralization IC80 [12]: 0.421 µg/mL
neutralization MPI [12]: 100
neutralization IC50 [13]: 0.088 µg/mL
neutralization IC80 [13]: 0.289 µg/mL
neutralization MPI [13]: 100
neutralization IC50 [14]: 0.077 µg/mL
neutralization IC80 [14]: 0.208 µg/mL
neutralization MPI [14]: 100
neutralization IC50 [15]: 0.189 µg/mL
neutralization IC80 [15]: 0.688 µg/mL
neutralization MPI [15]: 100
neutralization IC50 [16]: 0.059 µg/mL
neutralization IC80 [16]: 0.328 µg/mL
neutralization MPI [16]: 100
neutralization IC50 [17]: 0.279 µg/mL
neutralization IC80 [17]: 1.01 µg/mL
neutralization MPI [17]: 100
neutralization IC50 [18]: 0.105 µg/mL
neutralization IC80 [18]: 0.374 µg/mL
neutralization MPI [18]: 100
neutralization IC50 [19]: 0.55 µg/mL
neutralization IC80 [19]: 1.59 µg/mL
neutralization MPI [19]: 100
neutralization IC50 [20]: 0.055 µg/mL
neutralization IC80 [20]: 0.191 µg/mL
neutralization MPI [20]: 100
neutralization IC50 [21]: 0.058 µg/mL
neutralization IC80 [21]: 0.142 µg/mL
neutralization MPI [21]: 100
neutralization IC50 [22]: 0.132 µg/mL
neutralization IC80 [22]: 0.623 µg/mL
neutralization MPI [22]: 100
neutralization IC50 [23]: 0.136 µg/mL
neutralization IC80 [23]: 0.461 µg/mL
neutralization MPI [23]: 100
neutralization IC50 [24]: 0.121 µg/mL
neutralization IC80 [24]: 0.742 µg/mL
neutralization MPI [24]: 99
neutralization IC50 [25]: 0.066 µg/mL
neutralization IC80 [25]: 0.228 µg/mL
neutralization MPI [25]: 100
neutralization IC50 [26]: 0.048 µg/mL
neutralization IC80 [26]: 0.161 µg/mL
neutralization MPI [26]: 100
neutralization IC50 [27]: 17.1 µg/mL
neutralization IC80 [27]: > 50 µg/mL
neutralization MPI [27]: 78
neutralization IC50 [28]: 0.044 µg/mL
neutralization IC80 [28]: 0.163 µg/mL
neutralization MPI [28]: 100
neutralization IC50 [29]: 0.497 µg/mL
neutralization IC80 [29]: 1.51 µg/mL
neutralization MPI [29]: 100
neutralization IC50 [30]: 0.355 µg/mL
neutralization IC80 [30]: 1.25 µg/mL
neutralization MPI [30]: 100
neutralization IC50 [31]: 42.4 µg/mL
neutralization IC80 [31]: > 50 µg/mL
neutralization MPI [31]: 56
neutralization IC50 [32]: 0.144 µg/mL
neutralization IC80 [32]: 1.05 µg/mL
neutralization MPI [32]: 100
neutralization IC50 [33]: 0.224 µg/mL
neutralization IC80 [33]: 0.715 µg/mL
neutralization MPI [33]: 100
